The target of test [1] is T1, human IgE; monoclonal antibody SE44 (human, UniProt P01854-1 1-428).
T1 construct: domain: human e constant region; also called IgE (SE44); human monoclonal IgE (SE44)
Nature of the test: BIAcore SPR, Kaff from kass and kdiss.

Test [2] deals with T1, human IgE; monoclonal antibody SE44. Nature of the test: BIAcore SPR, antibody captured via anti-human IgG, IgE SE44 25 nM, dissociation in HBS, 25°C. A general note: Surface plasmon resonance follows binding to a sensor surface in real time, without labels.
For test [3] the target is unchanged. Nature of the test: BIAcore SPR, antibody captured via anti-human IgG, IgE SE44 3.125-25 nM in flow, 25°C.

B1: reshaped human C21 antibody C21-H3/L1 (antibody, V domains shown)
VH: QVQLVQSGAEVKKPGASVKVSCKASGYTFSMYWLEWVRQAPGHGLEWVGEISPGTFTTNYNEKFKARATFTADTSTNTAYMELSSLRSEDTAVYYCARFSHFSGSNYDYFDYWGQGTLVTVSS
VL: DILLTQSPGTLSLSPGERATLSCRASQSIGTNIHWYQQKPGQAPRLLIKYASESISGIPSRFSGSGSGTDFTLTISRLEPEDFAMYYCQQSDSWPTTFGQGTKVEIK
In general, koff refers to a measure of how fast the partners let go of each other. A lower koff goes with slow dissociation. What is called kon is the rate constant with which the complex forms. A higher kon goes with faster complex formation. In test [1], B1 gave a Ka of 1.32e+10 M⁻¹. The molecule further yielded a koff in test [2] of 1.9e-05 s⁻¹. Also, the kon in test [3] worked out at 250000 M⁻¹ s⁻¹.

B2: reshaped human C21 antibody C21-Hay3/L2 (antibody, V domains shown)
VH: QVQLVQSGAEVKKPGASVKVSCKASGYTFSMYWLEWVRQAPGQRLEWMGEISPGTFTTNYNEKFKARATFTADTSASTAYMELSSLRSEDTAVYYCARFSHFSGSNYDYFDYWGQGTLVTVSS
VL: DILLTQSPGTLSLSPGERATLSCRASQSIGTNIHWYQQKPGQAPRLLIKYASESISGIPDRFSGSGSGTDFTLTISRLEPEDFAMYYCQQSDSWPTTFGQGTKVEIK
As for B2, the Ka in test [1] worked out at 8.1e+09 M⁻¹. The molecule also gave an off-rate (koff) in test [2] of 3.1e-05 s⁻¹. For the same molecule, the kon in test [3] was found to be 250000 M⁻¹ s⁻¹.

B3: reshaped human C21 antibody C21-H3/L2 (antibody, V domains shown)
VH: QVQLVQSGAEVKKPGASVKVSCKASGYTFSMYWLEWVRQAPGHGLEWVGEISPGTFTTNYNEKFKARATFTADTSTNTAYMELSSLRSEDTAVYYCARFSHFSGSNYDYFDYWGQGTLVTVSS
VL: DILLTQSPGTLSLSPGERATLSCRASQSIGTNIHWYQQKPGQAPRLLIKYASESISGIPDRFSGSGSGTDFTLTISRLEPEDFAMYYCQQSDSWPTTFGQGTKVEIK
Regarding B3, the Ka in test [1] is 5.7e+09 M⁻¹. This molecule came in with a koff in test [2] of 4.4e-05 s⁻¹. Further, the kon in test [3] turned out to be 250000 M⁻¹ s⁻¹.

B4: reshaped human C21 antibody C21-H1/L1 (antibody, V domains shown)
VH: QVQLVQSGAEVKKPGASVKVSCKASGYTFSMYWLEWVKQRPGHGLEWVGEISPGTFTTNYNEKFKAKATFTADTSTNTAYMELSSLTSEDTAVYYCARFSHFSGSNYDYFDYWGQGTLVTVSS
VL: DILLTQSPGTLSLSPGERATLSCRASQSIGTNIHWYQQKPGQAPRLLIKYASESISGIPSRFSGSGSGTDFTLTISRLEPEDFAMYYCQQSDSWPTTFGQGTKVEIK
B4: the Ka in test [1] stood at 8.7e+09 M⁻¹. The koff in test [2] was 3e-05 s⁻¹. The molecule further returned a kon in test [3] of 260000 M⁻¹ s⁻¹.

B5: reshaped human C21 antibody C21-H1/L2 (antibody, V domains shown)
VH: QVQLVQSGAEVKKPGASVKVSCKASGYTFSMYWLEWVKQRPGHGLEWVGEISPGTFTTNYNEKFKAKATFTADTSTNTAYMELSSLTSEDTAVYYCARFSHFSGSNYDYFDYWGQGTLVTVSS
VL: DILLTQSPGTLSLSPGERATLSCRASQSIGTNIHWYQQKPGQAPRLLIKYASESISGIPDRFSGSGSGTDFTLTISRLEPEDFAMYYCQQSDSWPTTFGQGTKVEIK
notes: C21-L2 is C21-L1 with aspartic acid instead of serine at position 60
In the case of B5, the Ka in test [1] turned out to be 4.9e+09 M⁻¹. The molecule also came in with a koff in test [2] of 5.7e-05 s⁻¹. The molecule also had an on-rate constant (kon) in test [3] of 280000 M⁻¹ s⁻¹.

B6: reshaped human C21 antibody C21-Hay3/L3 (antibody, V domains shown)
VH: QVQLVQSGAEVKKPGASVKVSCKASGYTFSMYWLEWVRQAPGQRLEWMGEISPGTFTTNYNEKFKARATFTADTSASTAYMELSSLRSEDTAVYYCARFSHFSGSNYDYFDYWGQGTLVTVSS
VL: EIVLTQSPGTLSLSPGERATLSCRASQSIGTNIHWYQQKPGQAPRLLIKYASESISGIPSRFSGSGSGTDFTLTISRLEPEDFAMYYCQQSDSWPTTFGQGTKVEIK
In turn, B6 came in with a Ka in test [1] of 1.6e+09 M⁻¹. The molecule also registered a koff in test [2] of 0.000159 s⁻¹. The kon in test [3] came to 260000 M⁻¹ s⁻¹.

B7: reshaped human C21 antibody C21-H3/L3 (antibody, V domains shown)
VH: QVQLVQSGAEVKKPGASVKVSCKASGYTFSMYWLEWVRQAPGHGLEWVGEISPGTFTTNYNEKFKARATFTADTSTNTAYMELSSLRSEDTAVYYCARFSHFSGSNYDYFDYWGQGTLVTVSS
VL: EIVLTQSPGTLSLSPGERATLSCRASQSIGTNIHWYQQKPGQAPRLLIKYASESISGIPSRFSGSGSGTDFTLTISRLEPEDFAMYYCQQSDSWPTTFGQGTKVEIK
In test [1], B7 yielded a Ka of 7.4e+09 M⁻¹. Besides, the koff in test [2] is 3.5e-05 s⁻¹. Also, the kon in test [3] was 260000 M⁻¹ s⁻¹.

B8: reshaped human C21 antibody C21-H1/L3 (antibody, V domains shown)
VH: QVQLVQSGAEVKKPGASVKVSCKASGYTFSMYWLEWVKQRPGHGLEWVGEISPGTFTTNYNEKFKAKATFTADTSTNTAYMELSSLTSEDTAVYYCARFSHFSGSNYDYFDYWGQGTLVTVSS
VL: EIVLTQSPGTLSLSPGERATLSCRASQSIGTNIHWYQQKPGQAPRLLIKYASESISGIPSRFSGSGSGTDFTLTISRLEPEDFAMYYCQQSDSWPTTFGQGTKVEIK
notes: C21-L3 is C21-L1 with Glu instead of Asp at position 1 and Val instead of Leu at position 3
In test [1], B8 gave a Ka of 4.7e+09 M⁻¹. In test [2], this molecule came in with a koff of 6.2e-05 s⁻¹. Also, the kon in test [3] was 290000 M⁻¹ s⁻¹.

B9: reshaped human C21 antibody C21-Hay3/L1 (antibody, V domains shown)
VH: QVQLVQSGAEVKKPGASVKVSCKASGYTFSMYWLEWVRQAPGQRLEWMGEISPGTFTTNYNEKFKARATFTADTSASTAYMELSSLRSEDTAVYYCARFSHFSGSNYDYFDYWGQGTLVTVSS
VL: DILLTQSPGTLSLSPGERATLSCRASQSIGTNIHWYQQKPGQAPRLLIKYASESISGIPSRFSGSGSGTDFTLTISRLEPEDFAMYYCQQSDSWPTTFGQGTKVEIK
In test [1], B9 displayed a Ka of 6.1e+09 M⁻¹. Further, the koff in test [2] amounted to 4.1e-05 s⁻¹. This molecule returned a kon in test [3] of 250000 M⁻¹ s⁻¹.
